Laboratory results as given in article PMC11440250 (iScience, 2024).

Target: the molecule itself
Assay: cross-linking

B1: Flag-PKM2 K207R (enzyme)
chain: not shown
  binding result: binds
